The subject of assay [1] is WT pups subjected to oxygen-induced retinopathy (OIR). Put plainly: OIR mouse model: Western blotting and immunolabelling of retina (A1, cleaved PARP, calbindin horizontal cells). It counts as in vivo. Here is the method: Western blotting analysis: Retina lysates were homogenized in RIPA buffer supplemented with protease and phosphatase inhibitors. Samples (20 μg protein) were run on 10% sodium dodecyl sulfate-polyacrylamide gel electrophoresis, transferred to nitrocellulose membrane and reacted with primary antibody followed by horseradish peroxidase-linked secondary antibody and enhanced chemiluminescence (Amersham Pharmacia). β-actin (mouse monoclonal antibody, 1:5000, Sigma-Aldrich) or GAPDH served as a loading control. The following primary antibodies were used: GFAP, PARP, A1.
Immunofluorescence labelling: PFA fixed eyeballs were washed in PBS and cryoprotected. Cryostat sections (15 μm) were permeabilized in 1% Triton (20 min) and blocked in 10% normal goat serum containing 1% BSA (one hour). Sections were then incubated overnight in primary antibodies at 4° C. On day two, the sections were incubated at room temperature for 1 hour in fluorescent conjugated secondary antibodies (Life Technologies), washed in PBS and mounted with Vectashield (Vector Laboratories)
PBS was used as vehicle control. Pups were anesthetized before treatment by intraperitoneal (i.p.) injection of ketamine/xylazine mixture. Intravitreal injections were performed using a 36-gauge NanoFil needle mounted to a 10-μL Hamilton syringe (World Precision Instruments). Two treatment strategies were employed. […]

In assay [2] the test system is WT C57BL/6J mice subjected to retinal ischemia-reperfusion (IR) injury. Put plainly: Retinal ischemia-reperfusion (IR) injury: neuronal survival by NeuN labeling of retinal flat-mounts. The class given is in vivo, mouse. The following applies: 25 mg/kg i.p. at 3 hours and day 4, 7 days post-injury; vehicle group 40%. Here is the method: Mouse retinal ischemia-reperfusion (IR) injury and traumatic optic neuropathy (TON) models: All experiments were performed in accordance with the ARVO Statement for the Use of Animals in Ophthalmic and Vision Research and were approved by the institutional animal care and use committee (Animal Welfare Assurance no. D16-00197). Wild-type (WT) C57BL/6J mice (10-12 weeks old) were anesthetized using ketamine/xylazine mixture then subjected to retinal ischemia-reperfusion (IR) injury or optic nerve crush (ONC) to model traumatic optic neuropathy (TON) as described in Shosha, et al., Cell death & disease, 7:e2483-e (2016) and Xu, et al., Frontiers in Neuroscience, 12:970 (2018). […]
Evaluation of retinal neurodegeneration: Retina flat-mounts and explants were immunolabeled for the neuronal marker, NeuN (Millipore), as previously described in Shosha, et al., Cell death & disease, 7:e2483-e (2016). Images were collected and analyzed in a blinded fashion using a semi-automated method. […] NeuN-positive cells were quantified using ImageJ software ‘Batch processing’ function. […] The macro was validated every time it was used to make sure it is compatible with the set of images being analyzed. […]

B1: PEG-A1: recombinant human arginase (rhArg) covalently attached to methoxy polyethylene glycol (mPEG-SPA; MW 5,000) via succinamide propionic acid (SPA) linker (protein, UniProt P05089 1-322, looked up)
Arginase-1: MSAKSRTIGIIGAPFSKGQPRGGVEEGPTVLRKAGLLEKLKEQECDVKDYGDLPFADIPNDSPFQIVKNPRSVGKASEQLAGKVAEVKKNGRISLVLGGDHSLAIGSISGHARVHPDLGVIWVDAHTDINTPLTTTSGNLHGQPVSFLLKELKGKIPDVPGFSWVTPCISAKDIVYIGLRDVDPGEHYILKTLGIKYFSMTEVDRLGIGKVMEETLSYLLGRKKRPIHLSFDVDGLDPSFTPATGTPVVGGLTYREGLYITEEIYKTGLLSGLDIMEVNPSLGKTPEEVTRTVNTAVAITLACFGLAREGNHKPIDYLNPPK
modifications: mPEG-SPA 5 kDa conjugate
notes: recombinant human arginase (rhArg) covalently attached to methoxy polyethylene glycol (mPEG-SPA; MW 5,000) via succinamide propionic acid (SPA) linker
For the molecule B1, the “OIR-induced calbindin-positive horizontal cell loss” value in assay [1] (P17, compared to vehicle treatment) was “significantly rescued”. Moreover, in assay [1] (P17 OIR retinal lysates), the “cleavage of the pro-apoptotic marker PARP (Western blot)” value is on record as “significantly reduced”. The “neuronal survival after retinal IR (NeuN, % of sham retina)” value in assay [2] is recorded as 62%.

Source of the values: patent US20210340516A1, “COMPOSITIONS CONTAINING ARGINASE 1 FOR THE TREATMENT OF NEUROVASCULAR AND RETINAL VASCULAR DISORDERS” (Augusta University Research Institute, Inc., priority 2020, published 2021).
